Test results reported in the DeepSol protein solubility set.

Experiment: soluble on expression in E. coli; label from the status in PepcDB or PDB records

Sequence	soluble on expression in E. coli
MAHHHHHHMYLGSIKNFEDDFLCKGEYKQVYLSLEQNENNEAIEIDICCDNNIYDILQFCREKYGIYGEYIIDSCGNVIHSIKDIIDGDTLYLKEKKEDMNFFSKIKNNFIVNDYIVEKRIGSGGFGIVFQGVHIQTKQKVALKFIPKSNFLDVTDVHRVFIEIQTLRGLIHNNIIKMYDVNHFQNYVCLIMEYAINGDLKNYIKNKFNGFLSEKEAHDLFLQIVKGVYYCHSKHIVHRDLKLENILLDEKMTCKIADFGLSDFVNVDQNIKTEAGTKAYIAPEIIFNQTINYSVFKLDIWSLGILLFIMTQGFAPFKYMEKELKNFESNTLNYANDISDDLKDLISLMLNVDPNKRPIIVEILNHRWFENYKES	soluble
QNLPQGDLMQHGMMAVKAATLSDAEVRQVADQACAESDQQNRIAPANSKYGQRLDKIAKALGDQIDGVPVNYKVYLTEEVNAWAMANGCIRVYSGLMELMSDNEIEGVLGHEMGHVALGHTRKAAQTAYAAAAVRGAAGASKSGALAALSGSQLGELTESLVNAQFSQSQESDADDFSYELLKKRGVNTQGLVTAFEKLAKLGGGDSSMFDSHPGSQARADHIRQRIAADR	not soluble
MGSDKIHHHHHHMDTDLLRAFVTVAECEGFSAAGKVLHRTQSAVSLQIKRLEDQMGESLFERTSRSVVLTPPGGRLLPYARHILKLQDEARRVMGVDRQGELIRLGTSEEQASTYLPELLPRFAARFPEVRLEVSCSISGSLVHDFQEGLLDVALVVRHGPTQTGRLLGREPMVWVVAEDRAIDDWEILPLALNPEGCIFRAHAFAALGPTERRWDVRYSSRSPTGINLPVQAGLAATVKTPRSVPEGCRIVGEEEGLPPLGHVEIEMHRTPGHSSDAFVAFCDELEHIVTATDSLESLEYVAAEG	not soluble
MASQADAQELAALRALSASIGLNPHMTQAAGGNTSLKAGDTLWIKASGTWLKDALSDDIMVPVAMAPLLEAVEEGDPAADKPQAFAINELNPRGLRPSIETTVHALMPQRVVLHVHCVDTISLAVQADGEAEVARRLGGIEWAYVPYCRPGLPLARGISEKLRPNVDVLILGNHGLVVAADTVAEAQRLLHRVRSLLARPARATAAPDIAALTALAADSAYRLPADLEAHAVALDPQSRRMAEAGSLYPDHVIFLGQGSVVAKPGENAAGVATRLGAAPVAILFPGAGVLVRGDASAGADAMQRCLADVTARVDVAARLNYLTAAENDELVNWDAEQYRQKLNATGGLEHHHHHH	not soluble
MIGGGPGGLYFAYLWKKRHPEDQVDLFEQNPADATWGFGVVFSDQALEFLRADDPETVDAIAPHMESWENITLNLQGGSVAIDGVGFSSIGRLELLQFLQQRALDVGVTPRFDTQIHGIDQLNGHDLIVAADGLNSLVRRAYEGDFGTSLSYSSNKFVWYGTSKRFDTLSQTFVKTDRGAFNAHHYRYSPTMSTFLVECDHATWQAYGFAYKDVEQSKGVCEEVFADTLGGHCLVSNKSVWRNFPWVWNEHWSFKNMVLIGDALHSAHFSIGSGTRLAIEDAIALVKALESDAHLNTALLRYQAARKPVVQKLVDAARTSASWYENFAQHMQLDLMDFAYSYITRSGRIDDSRLRAMSPAFMARYEAAKNGGDAASEATALEHHHHHH	soluble
RVASNLDNKARVTELFNSAYSILTEVEKLAQEGKMSEPEAKALATRLMRNNLYKDNEYVYVADENMTFVATPLDPQLHDTSFHDFKDGKGNSVGR	not soluble
MKVYYECAPCFLRQAREAIDLATDDEELKLRVMENILELLSERFRRGQVSNELGTRMHRLIKDMTGSEDPYLDEKRRCNEIALRFLPTVRDYLECHSDLESHVKVAITGNIIDFGALGLDFDHDRGIQESLRAPLTINHVPLLEDRLREASEVLYLLDNTGEILFDRPLIEKLAGYDVSVKVAVKGEPILNDACMEDALEAGLDEVAEIVTTGTDSVGIVYSDLSDEFRDMLDGTELVIAKGMGNYEGLTEISDGSRDIFCLLNAKCSAIARDLGVARGDNVAVKI	not soluble
MIGCLCIHGFTGSPEEVAPLADYLRERTDWMIETPTLPGHGSELRLKGITYDQWIAAAEQAFLALHHRCSVVYVIGFSMGGVIAVYLAEKYPVAKLVLLSAAFYYVNPRQLWRDIREMFANGWKGAREHPLFLRYRNKMMATPFSAVREFRKLVRDVRPRLPRVAAPALIVQGEKDGIVPLKSAYYLYEQIGSAEKKLLLLPNSFHHVCHSIDRHVLFAEVETFLRAAHAHHCKSPHNMV	not soluble
AHHHHHHASAKWVCKICGYIYDEDAGDPDNGISPGTKFEELPDDWVCPICGAPKSEFEKLEDGSPKLMTGFVRASGYANKVRRVLFAITRGKVFPEEVVKAAGELNKIIFEKLQEMGVKKEDVVRISVDFNIEDGKIVWNLDSLEIETYKKEEEEKLALAMEEVEHMEKMFEETVKELEALSDKLREISKEISELVERMKQEYTGLKLRSE	soluble
MSSTLRFHVLGRGAALPRAVAPYFVLRTDNWDDFGHRVQFHLILIVSGAPEKRIGSLKVLQRTSDKGEAMMVATDTELPSKFVELDDTFVSLGQDDDFYKKLHEALGDRAGEVLDALRDIAWRPAFASDFEPTPAFRNAMMRENGAQRARRFGRAWALGEQITERPAFDYVGTIEGADIKVEGEFDFSATDPVPGRIVGLIGRNAVGKTRYLASLGSDLAQISRRSAEALEAREARFPGGRPLFTRIIAISYSAFDRFKRPPMDSSSSYVYCGIRNDRGGLSRSALIDRYRLNQVRIRERGEQRSWMRHMKTILGDQGAQLTASLEEEIRSDSTDDSALSSLSSGQSILAHFVTALLAWIQPNSLVLFDEPETHLHPNAVASLFLVLSQVLQEFDSYAVIATHSPVVIQEIPAKRVLVFRREGNVTIAEPLLLESFGESVTELTRHVFETGEVESLYKRTLRELAAEDTVEDVLARFELGLSLSAQAYLLAQYSKKAGGRTLEHHHHHH	not soluble
MGSDKIHHHHHHEDSNPNALSPGIFWKSEGDIMKGLTSVYGALQPNASWAIPFERYIVIDGYRSDEITHRDDVTSWMNISSFNVEPTNSVVKTEWTNLYKGINYANQCLTNIPTVPGDSESLNALKKQSIAEARFLRAYFYYRLYVNFGERVPIYKEALAGTDEEFYPPQANPGELVSLIETELKEVQSDLPESYEESEKGRVTRYTAAALLGKFYMFRKELSKAEVEFKKIIDKEGSLFGLMENWADNFDGMHKNNKESLFEIQFTGDRSGGQYEYNLFTVHLGPMAGLDAYEEAYPTDWMCQTLLADKTIDGKSSDRALHTLIFDDPECRPFYYKNGKSFKDYHKEGEIFWHKYVTYTEGMSDYWDYSFFNVSVIRYADVLLLYAECLNDKGETTEAINIINKVRARVNVPALPLTMSKAEVLKHLQDKERPCELALEGSRWYDLVRWGIVEETLKAHNKPFVENYVDTKHQLFPIPHSEFLLNPDWEQNPNYSK	not soluble
MEQPYVYAYPQGSGPSGAPTPQAGGVVVDPKYCAPYPIDMAIVRKMMSLTDGNFVITDVNGNLLFKVKEPVFGLHDKRVLLDGSGTPVVTLREKMVSMHDRWQVFRGGSTDQRDLLYTVKRSSMLQLKTKLDVFLGHNKDEKRCDFRVKGSWLERSCVVYAGESDAIVAQMHRKHTVQSVFLGKDNFSVTVYPNVDYAFIASLVVILDDVNREDRAA	soluble
MMGNKLTLPAELPDEQDLRAVLAYNMRLFRVNKGWSQEELARQCGLDRTYVSAVERKRWNIALSNIEKMAAALGVAAYQLLLPPQERLKLMTNSADTRQMPSESGI	not soluble
MGSDKIHHHHHHMFDDADDIDTETVEEWEASAEFGLLYTSGNTETESLKGKFTASRDVQNWRHKGVFDYYTSEQKDQDTGEMNETADRIFISAQSNYKFDPDSRDSLFVFGSYEEDEFSGFAYQATVATGYGARYRYDEDIYADYEIGPGYSRTKPVQVEGEPPVESDGSMILRLAGSLNWKISENSRFSALLSSEVGEDNTKSKAELSVSANINSALAMKVSLGANHNSHVADESIEKLDTETAVTLVYSF	not soluble
MRKLSTRPLPLGDGFFDSSSDSSESELSDKDDEDRYSDSTVSTLTSQDRRDTQGCQYPRSSELPISESPAPRARRARKQRSKRKSVKPPNTSSDDSSDDSDDSSSSSSSDDSVSSKSSTNSSDSSPCRCRDGLAEWEQRHGRRWHPYGRNGTWEPYRNRRRGIYDCENSPRETYSNGA	not soluble
MGSDKIHHHHHHMRRLNRKNNEALKKLNDRQRKVLYCIVREYIENKKPVSSQRVLEVSNIEFSSATIRNDMKKLEYLGYIYQPHTSAGRIPTDKGLRFYYEEMLKISKETSEADLAVETFKSMPLADPEKVLFLAGNLLARLTEGYVLIERPNTRDLKILRVMLIPVSEDYLIFSILTEFGVSKVTPIKTQERLNWEEIERQLNFLLRGRTVGEVLMGKIESLKGSGFLRLIESLIGETVERYLDAGLENLLKDETLTLEDIRNLLEEVKDQKFLESLVGEGITVRIGREIGRKKLEKFAVFSGKYFKGESPIGSVYLFTSKVTKYDRNHRVFEYILNRLSEYFTSTSRR	not soluble
MGSDKIHHHHHHMDTDWSNLAVRLERLLERFERIIDRHDPVLPRDPAFFDGAIAFRWRRSGEQGTFEPVTHPHLPDPADLVGIDLVREDLIRNTAQFMDGYPANNVLLWGERGTGKSTCVKGMLRLFADRGLRLVEVQRDDLMSLPALIAALRSVPRRFILFCDDLSFGEGEGGYRELKALLEGSIEAKPTNILFYATSNRRHLLPERMEDNLSSEIHPEEAVSEKLSLADRFGMALGFYPFSQDVYLSIVERYAEKFALPMEREALRKEAHLWAMYRGSRSGRSARQFIDDLAGRLGVRLNDR	not soluble
GSVSPTFQVVNSFAPVQECSTQLDIVIVLDGSNSIYPWESVIAFLNDLLKRMDIGPKQTQVGIVQYGENVTHEFNLNKYSSTEEVLVAANKIVQRGGRQTMTALGIDTARKEAFTEARGARRGVKKVMVIVTDGESHDNYRLKQVIQDCEDENIQRFSIAILGHYNRGNLSTEKFVEEIKSIASEPTEKHFFNVSDELALVTIVKALGERIFALEALERPHRD	soluble
MLKQSLATLLLCSTLSPLAVVLPTLAGPGDGGMGWGAKVENLNLTPEQRQNLQAIRQRYQSQIEETRTQLRTAKDELRRLMASNASDEQIRAKHAQVQQLQQKLATLRFESMLATRKILTPEQRQALAERMQNRQGQRRLERLEHHHHHH	soluble
MANEIPTKGILKSEALKQYIMETSAYPREHELLKELRKATVQKYGNLSEMEVPVDEGHFLSMLVKIMNAKNTIEIGVFTGYSLLTTALALPEDGRITAIDIDKEAYEVGLEFIKKAGVDHKINFIHSDGLKALDQLVNDKCEFDFAFADADKSSYVNFHERLLKLVKVGGIIAFDNTLWFGFVAEDEDGVPEHMREYRAALIEFNKKLALDPRVEVSQISIGDGITLCRRLV	soluble
PYPIDLVSVVIPVYNEEASLPELLRRTEAACLELGRAFEIVLVDDGSRDRSAELLQAAAERDGSAVVAVILNRNYGQHAAILAGFEQSRGDLVITLDADLQNPPEEIPRLVERAAQGYDVVGSIRAERQDSAWRRWPSRLVNLAVQRSTGVAMHDYGCMLRAYRRSIVEAMLACRERSTFIPILANGFARHTCEIRVAHAERAHGESKYSAMRLLNLMFDLVTCMTTTPLR	not soluble
MRGSHHHHHHTDPALRAKKIPCVMMRGGTSRGAFLLAEHLPEDQTQRDKILMAIMGSGNDLEIDGIGGGNPLTSKVAIISRSSDPRADVDYLFAQVIVHEQRVDTTPNCGNMLSGVGAFAIENGLIAATSPVTRVRIRNVNTGTFIEADVQTPNGVVEYEGSARIDGVPGTAAPVALTFLNAAGTKTGKVFPTDNQIDYFDDVPVTCIDMAMPVVIIPAEYLGKTGYELPAELDADKALLARIESIRLQAGKAMGLGDVSNMVIPKPVLISPAQKGGAINVRYFMPHSCHRALAITGAIAISSSCALEGTVTRQIVPSVGYGNINIEHPSGALDVHLSNEGQDATTLRASVIRTTRKIFSGEVYLPGLCGR	soluble
